Bridges are numbered along the chain shown (N, C = ends). [ ]: non-standard residue; d: D form.
Assays:
[1] = system: J774-1 cells (a macrophage cell line); test: Suppression of TNF secretion stimulated by LPS in a macrophage cell line, varying epitope order and stereochemistry of associating amino acids (Example 3); format: cell-based; conditions: peptide 50 ug/ml; LPS 1.25 ug/ml; LPS alone 1861.9
Procedure: • 1. Cyclic octapeptides were prepared with the following structures: cyclo(-DF-S-ΣL-R-DF-S-ΣL-R-) cyclo(-DF-S-ΣL-R-DF-S-ΣD-R-) cyclo(-DF-S-ΣD-R-DF-S-ΣD-R-) cyclo(-DF-R-ΣL-S-DF-R-ΣL-S-) cyclo(-DF-R-ΣL-S-DF-R-ΣD-S-) cyclo(-DF-R-ΣD-S-DF-R-ΣD-S-) wherein F, S and R are the epitope-forming amino acids, ΣL represents an associating amino acid which is an L-alpha aminocarboxylic acid in which the associating functional group is a side-chain residue consisting of an unbranched —C10H21; ΣD represents an associating amino acid which is a D-alpha aminocarboxylic acid in which the associating functional group is a side-chain residue consisting an unbranched —C10H21. These cyclic oligopeptides were prepared as solutions in distilled water at a concentration of 1 mg/ml. • 2. J774-1 cells (a macrophage cell line) were plated out in all the wells of a 24-well cluster plates at a seeding density of 3×10^5 cells/ml/well (1 ml RPMI 1640 culture medium per well), and incubated overnight at 37° C. in 5% CO2/air. • 3. The following day, the solutions from step 1 were administered to eighteen wells containing cells in step 2, to give three wells each with a final concentration of 50 ug/ml. The remaining wells were left untreated. The plate was incubated for a further four hours at 37 degC. • 4. Lipopolysaccharide (from E. coli strain 0111 B4) was added to the wells receiving the octapeptide solutions, as well as three of the wells receiving no peptide. The concentration of lipopolysaccharide was 1.25 ug/ml. • 5. The plate was incubated overnight, and the following day the supernatants were assayed for TNF using a commercial ELISA kit.

[2] = target: thrombin (Homo sapiens, UniProt P00734); test: Inhibition of enzyme activity of thrombin, fluorogenic substrate (Example 7); format: biochemical
Procedure: 1. Cyclic oligopeptides of the following structures were synthesised as previously described, and prepared in complexed form with cyclodextrin at concentration of 1 mg/ml on Hanks Balanced Salts Solution using the procedure outlined in example 6. (i) cyclo(-R-E-Σ-S-R-E-R-Σ-S-E-) (ii) cyclo(-A-K-ΣE-Y-K-A-ΣY-E-) (iii) cyclo(-dF-R-C-S-dF-R-C-S-) (iv) cyclo(-dF-S-C-R-dF-S-C-R-)
2. In wells of a […] microplate, 20 ul of thrombin solution (0.01 mg/ml) were dispensed, and mixed with 60 ul of cyclic oligopeptide solution
3. 20 ul of the substrate boc-beta-benzyl-Asp-Pro-Arg-7-amido-4-methylcoumarin hydrochloride (0.01 mg/ml) was added to each well, and the time course of generation of […] was measured.

[3] = time 2.0 minutes, enzyme alone 770.9, lower = more inhibition
[4] = time 5.0 minutes, enzyme alone 1821.1
[5] = time 10.0 minutes, enzyme alone 2163.5
[6] = time 15.0 minutes, enzyme alone 2253.2
[7] = time 20.0 minutes, enzyme alone 2345.8
[8] = time 25.0 minutes, enzyme alone 2359.0

Row | Thrombin proteolytic activity (Fluorescence Units - Arbitrary Units) [2, 3] [Arbitrary Units] | Thrombin proteolytic activity (Fluorescence Units - Arbitrary Units) [2, 4] [Arbitrary Units] | Thrombin proteolytic activity (Fluorescence Units - Arbitrary Units) [2, 5] [Arbitrary Units] | Thrombin proteolytic activity (Fluorescence Units - Arbitrary Units) [2, 6] [Arbitrary Units] | Thrombin proteolytic activity (Fluorescence Units - Arbitrary Units) [2, 7] [Arbitrary Units] | Thrombin proteolytic activity (Fluorescence Units - Arbitrary Units) [2, 8] [Arbitrary Units] | Substance | Concentration of TNF [1] [pg/mL]
1 |  |  |  |  |  |  | cyclo(-DF-S-ΣD-R-DF-S-ΣD-R-) | 1438.0
2 |  |  |  |  |  |  | cyclo(-DF-R-ΣL-S-DF-R-ΣD-S-) | 1625.2
3 |  |  |  |  |  |  | cyclo(-DF-R-ΣL-S-DF-R-ΣL-S-) | 1990.4
4 | 523.2 | 1205.3 | 1586.9 | 1751.7 | 1843.1 | 1864.8 | cyclo(-dF-S-C-R-dF-S-C-R-) (cyclo([dF]SCR[dF]SCR); disulfide 3-7; SMILES N=C(N)NCCC[C@@H]1NC(=O)[C@@H]2CSSC[C@H](NC(=O)[C@H](CO)NC(=O)[C@@H](Cc3ccccc3)NC1=O)C(=O)N[C@@H](CCCNC(=N)N)C(=O)N[C@H](Cc1ccccc1)C(=O)N[C@@H](CO)C(=O)N2) [Example 7 (iv), cysteines in the ring are oxidised to form an internal bridge] | 
5 |  |  |  |  |  |  | cyclo(-DF-S-ΣL-R-DF-S-ΣD-R-) | 987.1
6 | 634.5 | 1368.8 | 1786.9 | 1980.7 | 2107.4 | 2159.7 | cyclo(-dF-R-C-S-dF-R-C-S-) (cyclo([dF]RCS[dF]RCS); disulfide 3-7; SMILES N=C(N)NCCC[C@@H]1NC(=O)[C@@H](Cc2ccccc2)NC(=O)[C@H](CO)NC(=O)[C@@H]2CSSC[C@H](NC1=O)C(=O)N[C@@H](CO)C(=O)N[C@H](Cc1ccccc1)C(=O)N[C@@H](CCCNC(=N)N)C(=O)N2) [Example 7 (iii), cysteines in the ring are oxidised to form an internal bridge] | 
